Experimental data reported in the Immune Epitope Database (IEDB).
pKd: −log10 of the molar value.

How the values were obtained:
HLA-A*32:01 = assay: IEDB peptide-MHC binding, purified MHC/competitive/radioactivity; filed as Kd, often an IC50 or EC50 that approximates it; ≥ and ≤ were set here for values at or beyond the usual limits of such assays
HLA-B*35:01 = assay: as above
HLA-B*51:01 [1] = assay: as above; conditions: source organism: Dengue virus 4 Philippines/H241/1956
HLA-B*51:01 [2] = assay: IEDB peptide-MHC binding, purified MHC/competitive/fluorescence; filed as Kd, often an IC50 or EC50 that approximates it; ≥ and ≤ were set here for values at or beyond the usual limits of such assays; conditions: source organism: Listeria monocytogenes 10403S
HLA-A*30:01 = assay: IEDB peptide-MHC binding, purified MHC/competitive/radioactivity; filed as Kd, often an IC50 or EC50 that approximates it; ≥ and ≤ were set here for values at or beyond the usual limits of such assays
HLA-A*02:06 = assay: as above
HLA-A*02:02 = assay: as above
HLA-A*02:03 = assay: as above
HLA-B*08:01 = assay: as above
HLA-B*53:01 = assay: as above
HLA-B*15:01 = assay: as above; conditions: source organism: Vaccinia virus WR
HLA-B*18:01 = assay: IEDB peptide-MHC binding, purified MHC/direct/fluorescence; filed as Kd, often an IC50 or EC50 that approximates it; ≥ and ≤ were set here for values at or beyond the usual limits of such assays
HLA-A*68:02 = assay: IEDB peptide-MHC binding, purified MHC/competitive/radioactivity; filed as Kd, often an IC50 or EC50 that approximates it; ≥ and ≤ were set here for values at or beyond the usual limits of such assays
HLA-A*02:01 = assay: IEDB peptide-MHC binding, purified MHC/competitive/fluorescence; filed as Kd, often an IC50 or EC50 that approximates it; ≥ and ≤ were set here for values at or beyond the usual limits of such assays; conditions: source organism: Variola virus
HLA-B*40:01 = assay: IEDB peptide-MHC binding, purified MHC/direct/fluorescence; filed as Kd, often an IC50 or EC50 that approximates it; ≥ and ≤ were set here for values at or beyond the usual limits of such assays; conditions: source organism: Entamoeba histolytica HM-1:IMSS
[3] = source organism: Dengue virus 3 Martinique/1243/1999
[4] = source organism: Dengue virus 4 Philippines/H241/1956
[5] = source organism: Vaccinia virus WR
[6] = source organism: Dengue virus 1 Singapore/S275/1990
[7] = source organism: Dengue virus 3 Singapore/8120/1995
[8] = source organism: Dengue virus 2 Jamaica/1409/1983
[9] = source organism: Lassa virus GA391
[10] = source organism: Dengue virus 1 Brazil/97-11/1997
[11] = source organism: Lassa virus Josiah

## LLVWHTWQKQ
HLA-A*32:01; [3]
  pKd: ≤ 4.63

## LPVYLMTLMK
HLA-B*35:01; [4]
  pKd: 6.48
HLA-B*51:01 [1]
  pKd: 5.15

## LSYEPDNIV
HLA-B*51:01 [2]
  pKd: ≤ 4.70

## LTLDIFYLF
HLA-A*32:01; [5]
  pKd: 8.36

## LVKESMASL
HLA-A*30:01; [5]
  pKd: 7.02
HLA-A*02:06; [5]
  pKd: 6.87
HLA-A*02:02; [5]
  pKd: 5.95
HLA-A*02:03; [5]
  pKd: 8.02

## MAMVLSIVSL
HLA-B*08:01; [6]
  pKd: 6.08

## MILFLKLLI
HLA-A*32:01; [5]
  pKd: 6.15

## MPGIFQTTTG
HLA-B*35:01; [7]
  pKd: 5.93
HLA-B*53:01; [7]
  pKd: 6.26

## MRFKKESSL
HLA-B*08:01; [5]
  pKd: 8.47

## MRGAKRMAI
HLA-B*08:01; [8]
  pKd: 8.61

## MSIMPVLAY
HLA-A*32:01; [5]
  pKd: 7.00
HLA-B*15:01
  pKd: 8.86

## MSKIKHKIF
HLA-B*08:01; [5]
  pKd: 9.07

## MSRKFMQVY
HLA-A*30:01; [5]
  pKd: 8.84

## NEAKVLELL
HLA-B*18:01; source organism: West Nile virus
  pKd: 7.42

## NISGYNFSL
HLA-A*02:06; [9]
  pKd: 6.83
HLA-A*68:02; [9]
  pKd: 6.75
HLA-A*02:02; [9]
  pKd: 7.14
HLA-A*02:03; [9]
  pKd: 5.68

## NMHLKRSVF
HLA-B*08:01; [5]
  pKd: 6.83

## NSKSRICVI
HLA-B*08:01; [5]
  pKd: 7.95
HLA-B*15:01
  pKd: 5.85

## QLNMEKREV
HLA-A*02:01
  pKd: 6.85

## QVLMMRTTW
HLA-A*32:01; [8]
  pKd: 7.13

## RERGLALHV
HLA-B*18:01; source organism: Salmonella enterica subsp. enterica serovar Typhimurium str. LT2
  pKd: 5.35

## REVEEIIKY
HLA-B*40:01
  pKd: 7.03
HLA-B*18:01; source organism: Entamoeba histolytica HM-1:IMSS
  pKd: 7.60

## RLIVLFEVF
HLA-A*32:01; [5]
  pKd: 7.90
HLA-B*15:01
  pKd: 8.16

## RMRFKKGAV
HLA-B*08:01; [5]
  pKd: 8.27

## RSTSLSVSLV
HLA-A*68:02; [8]
  pKd: 6.60

## RTATLILAGV
HLA-A*02:06; [3]
  pKd: 8.28
HLA-A*68:02; [3]
  pKd: 9.59
HLA-A*02:03; [3]
  pKd: 8.19

## RTRGPLGIL
HLA-A*30:01; [5]
  pKd: 10.06

## RVHDTNATK
HLA-A*30:01; [5]
  pKd: 8.12

## RVKQISIST
HLA-A*30:01; source organism: Vaccinia virus Copenhagen
  pKd: 9.43

## SAVPVHWVPT
HLA-A*32:01; [3]
  pKd: 5.70

## SGMVFTSPV
HLA-B*08:01; [5]
  pKd: 7.11

## SKGWKNWQEV
HLA-A*32:01; [4]
  pKd: 4.70

## SKGWNDWQQV
HLA-A*32:01; [10]
  pKd: ≤ 4.25

## SPYYRNSVA
HLA-B*08:01; [5]
  pKd: 6.95

## SRFKKVYIL
HLA-B*08:01; [5]
  pKd: 7.12

## SVNMISRMLI
HLA-A*68:02; [8]
  pKd: 6.63

## TTANISLTAI
HLA-A*68:02; [10]
  pKd: 9.10

## VAATMANEM
HLA-B*35:01; [8]
  pKd: 6.24

## VLIALSVLAV
HLA-A*02:06; [11]
  pKd: 6.89
HLA-A*68:02; [11]
  pKd: 5.43
HLA-A*02:02; [11]
  pKd: 6.79
HLA-A*02:03; [11]
  pKd: 7.91

## WAFCEVLTL
HLA-B*35:01; [4]
  pKd: 6.24

## WAKNIHTAI
HLA-B*08:01; [4]
  pKd: 7.63

## WATLLSLTF
HLA-B*35:01; [6]
  pKd: 6.90
HLA-B*53:01; [6]
  pKd: 8.39

## WNTGFDWITD
HLA-A*32:01; [4]
  pKd: 5.94

## WTAGADTSEV
HLA-A*68:02; source organism: Dengue virus 4 Dominica/814669/1981
  pKd: 7.54

## YRGAKRMAIL
HLA-B*08:01; [4]
  pKd: 6.89

## YRKYHVPIM
HLA-B*08:01; [5]
  pKd: 7.21

## YSAPFESEGV
HLA-A*68:02; [4]
  pKd: 8.60
